# Test results taken from patent US12760268, “Compositions and methods related to transferrin receptor-binding aptamers” (University of Washington).
# Key:
# [1] = biological target: T1, Transferrin receptor 1 (TfR1, CD71), endogenous on cells (Homo sapiens, UniProt P02786 SEQ:89-760); assay: flow; activated CD4+ T cells, apparent Kd, 4 C; conditions: chain copies: 2 (stated homodimer); label: biotin; 3' 8-nt toehold overhang, redesigned stem
# [2] = biological target: T1, Transferrin receptor 1 (TfR1, CD71), …; assay: flow; activated CD8+ T cells, apparent Kd, 4 C; conditions: chain copies: 2 (stated homodimer); label: biotin; 3' 8-nt toehold overhang, redesigned stem
# [3] = biological target: T1, Transferrin receptor 1 (TfR1, CD71), …; assay: flow; Jurkat cells, apparent Kd, 4 C; conditions: chain copies: 2 (stated homodimer)
# [4] = biological target: T2, Cellular nucleic acid-binding protein (CNBP, ZNF9) (Homo sapiens, UniProt P62633 P62633:1-177); assay: BLI; 2:1 heterogeneous ligand fit, first Kd; off-target; conditions: tags: His-tag, Novus Biologicals NBP2-22742, immobilized on Ni-NTA biosensor; label: 5'-FAM (with added 5' T), 5'-Cy5 or 5'-biotin; multi-hairpin on stem; G-quadruplex predicted
# T2 sequence (P62633 whole entry, one chain of several): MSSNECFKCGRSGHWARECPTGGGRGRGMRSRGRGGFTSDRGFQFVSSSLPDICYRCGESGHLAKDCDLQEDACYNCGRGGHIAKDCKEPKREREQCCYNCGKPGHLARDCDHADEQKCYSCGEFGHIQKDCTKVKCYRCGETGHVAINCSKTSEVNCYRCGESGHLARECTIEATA
# [5] = biological target: T2, Cellular nucleic acid-binding protein …; assay: BLI; 2:1 heterogeneous ligand fit, second Kd; off-target; conditions: tags: His-tag, Novus Biologicals NBP2-22742, immobilized on Ni-NTA biosensor; label: 5'-FAM (with added 5' T), 5'-Cy5 or 5'-biotin; multi-hairpin on stem; G-quadruplex predicted
# [6] = biological target: T1, Transferrin receptor 1 (TfR1, CD71), …; assay: flow; H9 cells, apparent Kd (+/-13.0), 4 C; conditions: chain copies: 2 (stated homodimer); label: 5'-FAM (with added 5' T), 5'-Cy5 or 5'-biotin; multi-hairpin on stem; G-quadruplex predicted
# [7] = biological target: Transferrin receptor 1 (mTfR1) (Mus musculus, UniProt Q62351 SEQ:89-763); assay: BLI; 200 nM mTfR1 over immobilized biotinylated aptamer; conditions: tags: His-tag, Sino Biological 50741-M07H; chain copies: 2; label: 5'-FAM (with added 5' T), 5'-Cy5 or 5'-biotin; multi-hairpin on stem; G-quadruplex predicted
# Transferrin receptor 1 (mTfR1), sequence (Q62351 89-763): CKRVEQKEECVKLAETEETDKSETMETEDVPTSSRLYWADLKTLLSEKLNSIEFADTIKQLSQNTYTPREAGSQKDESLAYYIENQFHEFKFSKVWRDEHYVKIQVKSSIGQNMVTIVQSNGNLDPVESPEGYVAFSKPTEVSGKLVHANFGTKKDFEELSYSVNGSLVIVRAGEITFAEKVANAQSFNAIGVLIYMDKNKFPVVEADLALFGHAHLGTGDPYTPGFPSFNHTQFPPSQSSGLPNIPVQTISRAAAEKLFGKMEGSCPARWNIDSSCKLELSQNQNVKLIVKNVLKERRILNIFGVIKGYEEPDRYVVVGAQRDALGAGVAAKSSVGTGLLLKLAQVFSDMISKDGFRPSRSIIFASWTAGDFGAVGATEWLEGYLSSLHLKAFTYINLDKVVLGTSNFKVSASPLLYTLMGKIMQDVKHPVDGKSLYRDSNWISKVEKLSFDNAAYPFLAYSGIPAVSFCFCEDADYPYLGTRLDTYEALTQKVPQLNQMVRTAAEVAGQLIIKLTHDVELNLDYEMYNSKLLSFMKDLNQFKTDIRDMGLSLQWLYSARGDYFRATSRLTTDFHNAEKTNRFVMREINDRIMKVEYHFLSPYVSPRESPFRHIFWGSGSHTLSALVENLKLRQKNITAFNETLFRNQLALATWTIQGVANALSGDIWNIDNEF
# [8] = biological target: T1, Transferrin receptor 1 (TfR1, CD71), …; assay: flow; Jurkat cells, apparent Kd, 4 C; TfR1-independent component present; conditions: chain copies: 2 (stated homodimer); label: 5'-FAM (with added 5' T), 5'-Cy5 or 5'-biotin; multi-hairpin on stem; G-quadruplex predicted
# [9] = biological target: T3, Transferrin receptor 1 (TfR1, CD71) (Homo sapiens, UniProt P02786 SEQ:89-760); assay: BLI; 25 C, 5.5 mM Mg, 1:1 fit; tRNA and salmon sperm DNA present; conditions: tags: biotinylated, ACROBiosystems TfR-H82E5, immobilized on streptavidin biosensor; chain copies: 2; label: 5'-FAM (with added 5' T), 5'-Cy5 or 5'-biotin; multi-hairpin on stem; G-quadruplex predicted
# T3 sequence (P02786 89-760): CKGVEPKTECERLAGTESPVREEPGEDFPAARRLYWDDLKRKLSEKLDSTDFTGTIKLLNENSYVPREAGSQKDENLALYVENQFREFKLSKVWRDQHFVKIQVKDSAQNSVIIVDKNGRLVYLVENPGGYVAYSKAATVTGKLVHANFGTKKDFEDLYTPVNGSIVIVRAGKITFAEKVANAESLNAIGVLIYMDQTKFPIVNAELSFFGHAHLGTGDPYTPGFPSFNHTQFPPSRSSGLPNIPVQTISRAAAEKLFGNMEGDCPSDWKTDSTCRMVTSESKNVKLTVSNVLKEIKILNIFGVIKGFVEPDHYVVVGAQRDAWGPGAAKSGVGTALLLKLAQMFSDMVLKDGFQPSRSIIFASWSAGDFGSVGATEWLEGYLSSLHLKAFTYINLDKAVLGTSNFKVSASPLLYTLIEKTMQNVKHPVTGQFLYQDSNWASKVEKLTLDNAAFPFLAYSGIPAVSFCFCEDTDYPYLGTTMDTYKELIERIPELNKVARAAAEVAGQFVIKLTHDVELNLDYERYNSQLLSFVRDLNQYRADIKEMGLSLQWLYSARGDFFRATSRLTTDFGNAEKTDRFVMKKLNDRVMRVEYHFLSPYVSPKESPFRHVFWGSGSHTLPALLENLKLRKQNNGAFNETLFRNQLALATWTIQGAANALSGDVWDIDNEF
# [10] = biological target: T2, Cellular nucleic acid-binding protein …; assay: BLI; conditions: tags: His-tag, Novus Biologicals NBP2-22742, immobilized on Ni-NTA biosensor
# [11] = biological target: T3, Transferrin receptor 1 (TfR1, CD71); assay: BLI; negative control; conditions: tags: biotinylated, ACROBiosystems TfR-H82E5, immobilized on streptavidin biosensor; chain copies: 2; label: 5'-FAM, 5'-Cy5 or 5'-biotin
# [12] = biological target: T1, Transferrin receptor 1 (TfR1, CD71), …; assay: flow; H9 cells, apparent Kd, 4 C; conditions: chain copies: 2 (stated homodimer); label: 5'-FAM or 5'-Cy5; multi-hairpin with extended stem
# [13] = biological target: T3, Transferrin receptor 1 (TfR1, CD71); assay: BLI; 25 C, 5.5 mM Mg, 1:1 fit; conditions: tags: biotinylated, ACROBiosystems TfR-H82E5, immobilized on streptavidin biosensor, chain copies: 2
# [14] = biological target: T3, Transferrin receptor 1 (TfR1, CD71); assay: BLI; no appreciable binding, single concentration; conditions: tags: biotinylated, ACROBiosystems TfR-H82E5, immobilized on streptavidin biosensor; chain copies: 2; label: 5'-FAM
# [15] = biological target: T1, Transferrin receptor 1 (TfR1, CD71), …; assay: flow; H9 cells, apparent Kd (+/-0.2), 4 C; conditions: chain copies: 2 (stated homodimer); label: 5'-FAM, 5'-Cy5 or 5'-biotin; hairpin
# [16] = label: 5'-FAM, 5'-Cy5 or 5'-biotin, hairpin
# T1 sequence (P02786 89-760): as above
binder,measurement,setting,value
rvCD71apt (JBA1.2) (ssDNA) DNA: GGAGTCACACGCATTAGCGTAAAGGGGGTGTTTGTGCGGTGTGGAGTGCGCGTGCTAATGCTGGAGTGTTTCCCAGGACCC,Kd,[1],28.5 nM
same,Kd,[2],35 nM
same,Kd,"[3]; label: biotin, 3' 8-nt toehold overhang, redesigned stem",35.2 nM
tJBA8.1 (ssDNA) DNA: GCAGCAGCGTAAAGGGGGTGTTTGTGCGGTGTGGAGTGCGCGTGCTGCTGC,Kd,[4],1.85 nM
same,Kd,[5],8.07 nM
same,Kd,[6],25.6 nM
same,binding result,[7],no binding
same,Kd,[8],10.9 nM
same,Kd,[9],25.1 nM
tJBA8.1 GGGAG (ssDNA) DNA: GCAGCAGCGTAAAGGGAGTGTTTGTGCGGTGTGGAGTGCGCGTGCTGCTGC,binding result,[10],no binding
tJBA8.1 GGAGG (ssDNA) DNA: GCAGCAGCGTAAAGGAGGTGTTTGTGCGGTGTGGAGTGCGCGTGCTGCTGC,binding result,[10],no binding
tJBA8.1 GGGGC (ssDNA) DNA: GCAGCAGCGTAAAGGGGCTGTTTGTGCGGTGTGGAGTGCGCGTGCTGCTGC,binding result,[10],no binding
RANL (ssDNA) DNA: ATCCAGAGTGACGCAGCAAATTCCAAACTCGAGTAAGCGTAGAGCCTCTCATCGCCTCAATAATGGACACGGTGGCTTAGT,binding result,"[10]; label: 5'-FAM, 5'-Cy5 or 5'-biotin",no binding
same,binding result,[11],no binding
JBA8.26 (ssDNA) DNA: ATCCAGAGTGACGCAGCAGCGTAAAGGGGGTGTTTGTGCGGTGTGGAGTGCGCGCGCTGCTGCTGGACACGGTGGCTTAGT,Kd,[12],3.3 nM
same,Kd,"[13]; label: 5'-FAM or 5'-Cy5, multi-hairpin with extended stem",6.87 nM
JBA8.1 (ssDNA) DNA: ATCCAGAGTGACGCAGCAGCGTAAAGGGGGTGTTTGTGCGGTGTGGAGTGCGCGTGCTGCTGCTGGACACGGTGGCTTAGT,Kd,"[3]; label: 5'-FAM or 5'-Cy5, multi-hairpin on stem, G-quadruplex predicted",5.5 nM
JBA8.11 (ssDNA) DNA: ATCCAGAGTGACGCAGCAGCCGGTCGCAGATGCAAATGCCCGACAGGGGGACGCGGGCTGCCATGGACACGGTGGCTTAGT,binding result,[14],no binding
XQ-2d (ssDNA) DNA: ACTCATAGGGTTAGGGGCTGCTGGCCAGATACTCAGATGGTAGGGTTACTATGAGC,binding result,[10]; [16],no binding
same,Kd,[15],2.2 nM
same,Kd,[13]; [16],14.4 nM
JBA8.3 (ssDNA) DNA: ATCCAGAGTGACGCAGCAGGGGCCGCGGATGCAAACGCCCGATAGGGGGACGGCACTGGAGCTTGGACACGGTGGCTTAGT,binding result,[14],no binding
JBA8.4 (ssDNA) DNA: ATCCAGAGTGACGCAGCAACCCAAACCACCAGCCGGGGATGCAAACACCGCACAGGGAACGGCTGGACACGGTGGCTTAGT,binding result,[14],no binding
JBA8.7 (ssDNA) DNA: ATCCAGAGTGACGCAGCAACCACAGATGCAAATGCGCGAGAGCGGGACGGTTTGCTAGGCTCATGGACACGGTGGCTTAGT,binding result,[14],no binding
JBA8.15 (ssDNA) DNA: ATCCAGAGTGACGCAGCACTCTCGGGGGGTAGGTGGGAAGGGGGCCGCCCCCTGGGTTAGGCTTGGACACGGTGGCTTAGT,binding result,[14],no binding
